{"source": "the supplement of paper PMC9732359", "note": "± gives the uncertainty stated by the source.", "data": [{"experiment": "protein stability index of a GFP-peptide fusion (yeast GPS) (PSI 1-4); higher = more stable; sorted into four equal gates, so the index is relative within each strain", "conditions": "doa10∆", "method_in_brief": "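Sequencing reads from sorted gates were used to score each peptide. The library consisted of tiled 17-residue yeast protein peptides fused downstream of GFP on a Cherry-expressing plasmid, pooled and carried in yeast. Mid-log cultures in leucine-free medium were split into four equal gates by GFP/Cherry ratio, and each gate's plasmids were PCR-amplified and Illumina-sequenced. The protein stability index adds up, over all gates, the read frequency multiplied by the gate number.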", "values": [{"sequence": "QGEEEELIALNLSEARL [RPB4]", "protein stability index": "3.22 ± 0.12"}, {"sequence": "QGGAMNKKSEQALDISK [SRP72]", "protein stability index": "3.07 ± 0.067"}, {"sequence": "QGLAMVEKYAPDVVRSL [RRP42]", "protein stability index": "2.25 ± 0.15"}, {"sequence": "QGMEGTVDLALFGSPPF [YMR129W/POM152]", "protein stability index": "3.39 ± 0.079"}, {"sequence": "QHDSSANEDEEEQLDAL [CSN12]", "protein stability index": "3.55 ± 0.25"}, {"sequence": "QHHVTDADKLSFNCENF [YML031W/NDC1]", "protein stability index": "2.45 ± 0.065"}, {"sequence": "QIANEFNTQQGIKKHSL [YDL116W/NUP84]", "protein stability index": "3.01 ± 0.055"}, {"sequence": "QIDYKLESFQAVYNKLT [RPS7A]", "protein stability index": "2.26 ± 0.043"}, {"sequence": "QIGQVPLAPAPINLPPQ [SNF5]", "protein stability index": "2.35 ± 0.08"}, {"sequence": "QIISNAHNKPSLFSKIK [YAR002W/NUP60]", "protein stability index": "2.94 ± 0.088"}, {"sequence": "QIKEIKEVIELPVKHPE [RPT6]", "protein stability index": "2.98 ± 0.074"}, {"sequence": "QILIFAADTSIVEQDKS [YJL039C/NUP192]", "protein stability index": "2.04 ± 0.13"}, {"sequence": "QIMQLKKICNHPFVFEE [SNF2]", "protein stability index": "2.77 ± 0.075"}, {"sequence": "QITIEPGVDVEVVVASN [RPS20]", "protein stability index": "2.53 ± 0.061"}, {"sequence": "QKKILSIRLKVPPTIAQ [RPL8A]", "protein stability index": "1.53 ± 0.037"}, {"sequence": "QKKNFLFKPLNKTLTLD [ARP7]", "protein stability index": "2.83 ± 0.093"}, {"sequence": "QKKRVVDPFTRKEWFDI [RPS1A]", "protein stability index": "2.77 ± 0.15"}, {"sequence": "QKLDILVAKLKKVKSAS [SMC4]", "protein stability index": "2.64 ± 0.076"}, {"sequence": "QKLHKVKKASGEIVSIN [RPL20A]", "protein stability index": "2.98 ± 0.076"}, {"sequence": "QKNYADPEKDSINATAL [SIN4]", "protein stability index": "1.9 ± 0.042"}, {"sequence": "QKSSKENIENEEYVINL [ECM29]", "protein stability index": "3.02 ± 0.1"}, {"sequence": "QKTVFDELCKLVTCEGS [SRP54]", "protein stability index": "1.19 ± 0.1"}, {"sequence": "QKVFVRSRNGGATKIVR [DIS3]", "protein stability index": "2.33 ± 0.085"}, {"sequence": "QLDSDANKLSKSHSTVS [ISW2]", "protein stability index": "3.04 ± 0.063"}, {"sequence": "QLEGFESRKAFFLGYMI [RPB2]", "protein stability index": "1.22 ± 0.088"}, {"sequence": "QLEYKRGEIREIEQVCK [MED7]", "protein stability index": "1.49 ± 0.11"}, {"sequence": "QLGPQTPAFNTAILQRQ [ECM29]", "protein stability index": "1.39 ± 0.21"}, {"sequence": "QLIKVAVHNGDRKHVAA [RPL9B]", "protein stability index": "2.09 ± 0.054"}, {"sequence": "QLILSDVDPEFYLKYVD [RET1]", "protein stability index": "3.25 ± 0.23"}, {"sequence": "QLKFEGFALNSDIVFIH [BRR2]", "protein stability index": "1.87 ± 0.064"}, {"sequence": "QLKTGLAAIVSTVIEEF [YGL172W/NUP49]", "protein stability index": "2.93 ± 0.094"}, {"sequence": "QLKWAQNTIDDTEMKMK [YIL149C/MLP2]", "protein stability index": "2.15 ± 0.046"}, {"sequence": "QLNCIDTQFTKLLDDNP [SRB8]", "protein stability index": "2.44 ± 0.074"}, {"sequence": "QLNKVVDQLFEKASVLY [RPN6]", "protein stability index": "2.55 ± 0.051"}, {"sequence": "QLPSKFTCSCNSLTVDG [RPN14]", "protein stability index": "2.2 ± 0.06"}, {"sequence": "QLVEITEQIKMRILSND [SRB8]", "protein stability index": "2.49 ± 0.045"}, {"sequence": "QLYEDLCRYEDTLSKLV [MED4]", "protein stability index": "2.62 ± 0.097"}, {"sequence": "QMDGFDNLGQTKIIMAT [RPT4]", "protein stability index": "3.54 ± 0.091"}, {"sequence": "QMPLNSNGGNNMLPQRQ [SNF2]", "protein stability index": "2.41 ± 0.047"}, {"sequence": "QNCWSLINDSYINDVHL [SSN8]", "protein stability index": "3.35 ± 0.063"}, {"sequence": "QNDTPMFKLGNFESPVL [YLR018C/POM34]", "protein stability index": "2.08 ± 0.066"}, {"sequence": "QNKKNLKWVAVVPDLGH [SSN2]", "protein stability index": "2.67 ± 0.085"}, {"sequence": "QNNFHVLIDLLNWFRTT [RGR1]", "protein stability index": "1.99 ± 0.064"}, {"sequence": "QNNTTKFHSELQYLDKH [RPN12]", "protein stability index": "2.81 ± 0.1"}, {"sequence": "QNPKLFQTIFSKQDLIH [SIN4]", "protein stability index": "2.43 ± 0.058"}, {"sequence": "QNPLPTRFEVELEFIQS [SOH1]", "protein stability index": "2.38 ± 0.083"}, {"sequence": "QNVTSETHSKKRKKEAN [ITC1]", "protein stability index": "2.92 ± 0.075"}, {"sequence": "QPGYADLEHKEDCVEEF [QCR6]", "protein stability index": "2.42 ± 0.058"}, {"sequence": "QPKAPRAPKVIHGQDFQ [ISW2]", "protein stability index": "2.88 ± 0.089"}, {"sequence": "QPQETEEHHEEEPSRVD [RPT4]", "protein stability index": "3.56 ± 0.064"}, {"sequence": "QPSKVSSNVQQPQQQLG [RTT102]", "protein stability index": "2.82 ± 0.081"}, {"sequence": "QPTNFTTKRLWSEITES [MCD1]", "protein stability index": "1.99 ± 0.088"}, {"sequence": "QPYEDRPFEGLFVISTE [RRP45]", "protein stability index": "2.96 ± 0.052"}, {"sequence": "QQIWKSPNFKNYLKYLE [SOH1]", "protein stability index": "1.72 ± 0.047"}, {"sequence": "QQLNKQRQDFERVRLRP [SNF6]", "protein stability index": "2.85 ± 0.062"}, {"sequence": "QQMIITRLKSLLKPFHV [SIR3]", "protein stability index": "2.17 ± 0.07"}, {"sequence": "QQMQPPNSSANNNPLQQ [GAL11]", "protein stability index": "3.02 ± 0.055"}, {"sequence": "QQQLRNQIQRQQQQQFR [SNF5]", "protein stability index": "1.43 ± 0.18"}, {"sequence": "QQQQMQQQQQQQQQQQN [SSN2]", "protein stability index": "2.31 ± 0.11"}, {"sequence": "QQQQQQQQGQIPQSQQV [SNF5]", "protein stability index": "2.231 ± 0.016"}, {"sequence": "QQVPPLPDELTLSYDDI [DLS1]", "protein stability index": "2.56 ± 0.045"}, {"sequence": "QQWGNDFYKRDPRIAPL [FAS2]", "protein stability index": "1.88 ± 0.058"}, {"sequence": "QRQDFERVRLRPEQLSN [SNF6]", "protein stability index": "1.98 ± 0.05"}, {"sequence": "QSEDLSHAVEFFMSERS [YML103C/NUP188]", "protein stability index": "3.29 ± 0.077"}, {"sequence": "QSNYGIYSSDAQGDPNL [NUT1]", "protein stability index": "3.03 ± 0.077"}, {"sequence": "QSYFSQLKFEGFALNSD [BRR2]", "protein stability index": "1.35 ± 0.05"}, {"sequence": "QTATQLLERGRLRKRVT [SMC2]", "protein stability index": "3.04 ± 0.11"}, {"sequence": "QTEIKDIILGQNIKAPS [PRP8]", "protein stability index": "2.6 ± 0.087"}, {"sequence": "QTQAIAQQQQLSNYPQQ [YGR119C/NUP57]", "protein stability index": "2.79 ± 0.058"}, {"sequence": "QTRWGLPSGRQDGVLLV [FAS2]", "protein stability index": "1.65 ± 0.12"}, {"sequence": "QTVSNKEDAKATMENIQ [SRP54]", "protein stability index": "2.98 ± 0.062"}, {"sequence": "QVARTNLDGTKAVKLRK [ROX3]", "protein stability index": "3.03 ± 0.07"}, {"sequence": "QVGERIKQTFKNDLFVI [RPO21]", "protein stability index": "2.38 ± 0.066"}, {"sequence": "QVGLNFELSFTGAPPYY [YMR129W/POM152]", "protein stability index": "2.35 ± 0.053"}, {"sequence": "QVNQLQRILEVLGTPDQ [SSN3]", "protein stability index": "1.49 ± 0.043"}, {"sequence": "QVSNFAPQVYIITKNEN [GAL11]", "protein stability index": "2.96 ± 0.16"}, {"sequence": "QVVLGGTSKYLINGHRA [SMC2]", "protein stability index": "2.88 ± 0.059"}, {"sequence": "QWSATWIAMRREKRDRT [PRP8]", "protein stability index": "2.23 ± 0.089"}, {"sequence": "QYIRTLVSEARTLWPEF [SSN8]", "protein stability index": "2.61 ± 0.052"}, {"sequence": "RAANQGALPPDLSLIVK [CYT1]", "protein stability index": "2.95 ± 0.11"}, {"sequence": "RAIPFRRFNSSIGRTAQ [RPL17A]", "protein stability index": "2.91 ± 0.07"}, {"sequence": "RALVEHIIQAKADAQRE [RPL19A]", "protein stability index": "1.67 ± 0.26"}, {"sequence": "RANLRKYREGQVLFQGL [POP1]", "protein stability index": "2.83 ± 0.095"}, {"sequence": "RAPIYHSKFRSSSGNTW [YML031W/NDC1]", "protein stability index": "2.43 ± 0.11"}, {"sequence": "RARGPMQVLTRQPVEGR [RPB2]", "protein stability index": "2.88 ± 0.2"}, {"sequence": "RAVLTPLITRHCYPRQL [RRP46]", "protein stability index": "2.4 ± 0.048"}, {"sequence": "RCIGDSDNVSFEIQGVP [YMR129W/POM152]", "protein stability index": "3.17 ± 0.1"}, {"sequence": "RDDGKRELLVEGYGLRD [RPO31]", "protein stability index": "2.4 ± 0.079"}, {"sequence": "RDKVCKQINEARDEILP [PGD1]", "protein stability index": "1.77 ± 0.091"}, {"sequence": "RDLILTEYGRKYNVNIS [PRP8]", "protein stability index": "2.2 ± 0.18"}, {"sequence": "RDMIMKRNSDKVEYKIV [ITC1]", "protein stability index": "1.78 ± 0.078"}, {"sequence": "RDYLVDTLKLRENLHIL [RRP6]", "protein stability index": "3.52 ± 0.098"}, {"sequence": "REDIDDPLAKVNVLLQS [BRR2]", "protein stability index": "2.91 ± 0.12"}, {"sequence": "REEAIGFIRGSNKFAEV [SMC3]", "protein stability index": "3.01 ± 0.093"}, {"sequence": "REIHNEAESQLRAAQQQ [FAS2]", "protein stability index": "2.91 ± 0.088"}, {"sequence": "RELFVMAREHAPSIIFM [RPT6]", "protein stability index": "1.82 ± 0.078"}, {"sequence": "RELTKNILWRIADKTTY [SIR4]", "protein stability index": "3.02 ± 0.094"}, {"sequence": "RENALYDYYALQLLPLQ [SNF2]", "protein stability index": "2.63 ± 0.078"}, {"sequence": "RENLHILNEVFTNPSIV [RRP6]", "protein stability index": "2.26 ± 0.076"}, {"sequence": "RENVKSKDEPVSKAVES [SIR4]", "protein stability index": "3.58 ± 0.15"}, {"sequence": "REVENSVSLLNSDIANL [SMC1]", "protein stability index": "2.8 ± 0.063"}, {"sequence": "RFDAQTGSDREVQRILI [RPT3]", "protein stability index": "3.09 ± 0.12"}, {"sequence": "RFNAKVSMVKRAIDSLI [CDC53]", "protein stability index": "1.86 ± 0.071"}]}]}
